Assay results taken from patent publication US20150344570A1 (published 2015).

B1: GpH7-A5/GpH7-B3 variant S267_16H/GpL16-k0 (antibody, human IgG1, kappa)
heavy 1: not shown
heavy 2: not shown
light: DIVMTQSPLSLPVTPGEPASISCQASESLVHSNRNTYLHWYLQKPGQSPQLLIYKVSNRFSGVPDRFSGSGSGTDFTLKISRVEAEDVGVYYCSQNTHVPPTFGQGTKVEIERTVAAPSVFIFPPSDEQLKSGTASVVCLLNNFYPREAKVQWKVDNALQSGNSQESVTEQDSKDSTYSLSSTLTLSKADYEKHKVYACEVTHQGLSSPVTKSFNRGEC
notes: also called He Ab S267_16H
B2: GpH7-A5/GpH7-B3 variant S298_01G/GpL16-k0 (antibody, human IgG1, kappa)
heavy 1: not shown
heavy 2: not shown
light: B1 light
notes: also called He Ab S298_01G
B3: GpH7-A5/GpH7-B3 variant S298_02A/GpL16-k0 (antibody, human IgG1, kappa)
heavy 1: not shown
heavy 2: not shown
light: B1 light
notes: also called He Ab S298_02A; GpH7-A5/GpH7-B3-15-02A/GpL16-k0
B4: GpH7-A5/GpH7-B3 variant S298_03V/GpL16-k0 (antibody, human IgG1, kappa)
heavy 1: not shown
heavy 2: not shown
light: B1 light
notes: also called He Ab S298_03V
B5: GpH7-A5/GpH7-B3 variant S298_04F/GpL16-k0 (antibody, human IgG1, kappa)
heavy 1: not shown
heavy 2: not shown
light: B1 light
notes: also called He Ab S298_04F
B6: GpH7-A5/GpH7-B3 variant S298_06M/GpL16-k0 (antibody, human IgG1, kappa)
heavy 1: not shown
heavy 2: not shown
light: B1 light
notes: also called He Ab S298_06M
B7: GpH7-A5/GpH7-B3 variant S298_07I/GpL16-k0 (antibody, human IgG1, kappa)
heavy 1: not shown
heavy 2: not shown
light: B1 light
notes: also called He Ab S298_07I
B8: GpH7-A5/GpH7-B3 variant S298_08L/GpL16-k0 (antibody, human IgG1, kappa)
heavy 1: not shown
heavy 2: not shown
light: B1 light
notes: also called He Ab S298_08L
B9: GpH7-A5/GpH7-B3 variant S298_10E/GpL16-k0 (antibody, human IgG1, kappa)
heavy 1: not shown
heavy 2: not shown
light: B1 light
notes: also called He Ab S298_10E
B10: GpH7-A5/GpH7-B3 variant S298_12R/GpL16-k0 (antibody, human IgG1, kappa)
heavy 1: not shown
heavy 2: not shown
light: B1 light
notes: also called He Ab S298_12R
B11: GpH7-A5/GpH7-B3 variant S298_14T/GpL16-k0 (antibody, human IgG1, kappa)
heavy 1: not shown
heavy 2: not shown
light: B1 light
notes: also called He Ab S298_14T
B12: GpH7-A5/GpH7-B3 variant S298_15Y/GpL16-k0 (antibody, human IgG1, kappa)
heavy 1: not shown
heavy 2: not shown
light: B1 light
notes: also called He Ab S298_15Y
B13: GpH7-A5/GpH7-B3 variant S298_16H/GpL16-k0 (antibody, human IgG1, kappa)
heavy 1: not shown
heavy 2: not shown
light: B1 light
notes: also called He Ab S298_16H
B14: GpH7-A5/GpH7-B3 variant S298_18N/GpL16-k0 (antibody, human IgG1, kappa)
heavy 1: not shown
heavy 2: not shown
light: B1 light
notes: also called He Ab S298_18N
B15: GpH7-A5/GpH7-B3 variant S298_19Q/GpL16-k0 (antibody, human IgG1, kappa)
heavy 1: not shown
heavy 2: not shown
light: B1 light
notes: also called He Ab S298_19Q
B16: GpH7-A5/GpH7-B3 variant S298_20W/GpL16-k0 (antibody, human IgG1, kappa)
heavy 1: not shown
heavy 2: not shown
light: B1 light
notes: also called He Ab S298_20W
B17: GpH7-A5/GpH7-B3 variant S324_02A/GpL16-k0 (antibody, human IgG1, kappa)
heavy 1: not shown
heavy 2: not shown
light: B1 light
notes: also called He Ab S324_02A
B18: GpH7-A5/GpH7-B3 variant S324_03V/GpL16-k0 (antibody, human IgG1, kappa)
heavy 1: not shown
heavy 2: not shown
light: B1 light
notes: also called He Ab S324_03V
B19: GpH7-A5/GpH7-B3 variant S324_08L/GpL16-k0 (antibody, human IgG1, kappa)
heavy 1: not shown
heavy 2: not shown
light: B1 light
notes: also called He Ab S324_08L
B20: GpH7-B3 variant T335_07I/GpL16-k0 (antibody, human IgG1, kappa)
heavy: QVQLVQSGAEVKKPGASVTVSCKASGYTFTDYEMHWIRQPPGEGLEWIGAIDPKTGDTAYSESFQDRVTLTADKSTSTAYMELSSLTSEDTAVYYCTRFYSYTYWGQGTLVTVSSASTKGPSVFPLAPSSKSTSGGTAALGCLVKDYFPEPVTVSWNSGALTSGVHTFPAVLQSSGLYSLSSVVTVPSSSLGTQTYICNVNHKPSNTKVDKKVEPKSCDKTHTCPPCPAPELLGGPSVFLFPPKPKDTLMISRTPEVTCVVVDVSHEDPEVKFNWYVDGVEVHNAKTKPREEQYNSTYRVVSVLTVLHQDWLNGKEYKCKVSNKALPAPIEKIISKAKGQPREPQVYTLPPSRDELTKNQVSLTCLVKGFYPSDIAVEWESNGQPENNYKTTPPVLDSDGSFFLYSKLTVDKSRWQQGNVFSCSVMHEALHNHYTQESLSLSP
light: B1 light
notes: also called Ho Ab T335_07I
B21: GpH7-B3 variant T335_08L/GpL16-k0 (antibody, human IgG1, kappa)
heavy: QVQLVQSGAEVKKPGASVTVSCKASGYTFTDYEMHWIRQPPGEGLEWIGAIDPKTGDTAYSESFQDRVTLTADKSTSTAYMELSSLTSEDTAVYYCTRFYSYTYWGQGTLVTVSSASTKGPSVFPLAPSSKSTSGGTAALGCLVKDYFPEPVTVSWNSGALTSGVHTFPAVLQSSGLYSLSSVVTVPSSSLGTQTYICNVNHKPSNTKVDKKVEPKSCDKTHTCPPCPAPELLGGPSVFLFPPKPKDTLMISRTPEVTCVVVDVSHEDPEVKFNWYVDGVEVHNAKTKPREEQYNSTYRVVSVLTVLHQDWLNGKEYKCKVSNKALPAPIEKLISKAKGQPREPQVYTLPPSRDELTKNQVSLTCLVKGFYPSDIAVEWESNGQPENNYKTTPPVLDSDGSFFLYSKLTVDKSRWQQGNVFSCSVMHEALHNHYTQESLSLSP
light: B1 light
notes: also called Ho Ab T335_08L
B22: GpH7-B3 variant T335_09D/GpL16-k0 (antibody, human IgG1, kappa)
heavy: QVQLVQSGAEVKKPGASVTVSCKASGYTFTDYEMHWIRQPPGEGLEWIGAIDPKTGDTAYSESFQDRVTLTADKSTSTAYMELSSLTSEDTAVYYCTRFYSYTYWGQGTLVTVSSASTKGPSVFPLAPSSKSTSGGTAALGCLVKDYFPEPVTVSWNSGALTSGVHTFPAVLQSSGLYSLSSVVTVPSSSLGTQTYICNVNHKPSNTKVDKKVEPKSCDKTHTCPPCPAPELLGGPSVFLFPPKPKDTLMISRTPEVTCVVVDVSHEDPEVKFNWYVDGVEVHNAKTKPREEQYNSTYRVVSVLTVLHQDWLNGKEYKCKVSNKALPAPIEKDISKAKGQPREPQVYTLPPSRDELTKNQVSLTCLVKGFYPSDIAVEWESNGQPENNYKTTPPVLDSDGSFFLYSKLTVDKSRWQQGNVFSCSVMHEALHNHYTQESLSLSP
light: B1 light
notes: also called Ho Ab T335_09D
B23: GpH7-B3 variant T335_10E/GpL16-k0 (antibody, human IgG1, kappa)
heavy: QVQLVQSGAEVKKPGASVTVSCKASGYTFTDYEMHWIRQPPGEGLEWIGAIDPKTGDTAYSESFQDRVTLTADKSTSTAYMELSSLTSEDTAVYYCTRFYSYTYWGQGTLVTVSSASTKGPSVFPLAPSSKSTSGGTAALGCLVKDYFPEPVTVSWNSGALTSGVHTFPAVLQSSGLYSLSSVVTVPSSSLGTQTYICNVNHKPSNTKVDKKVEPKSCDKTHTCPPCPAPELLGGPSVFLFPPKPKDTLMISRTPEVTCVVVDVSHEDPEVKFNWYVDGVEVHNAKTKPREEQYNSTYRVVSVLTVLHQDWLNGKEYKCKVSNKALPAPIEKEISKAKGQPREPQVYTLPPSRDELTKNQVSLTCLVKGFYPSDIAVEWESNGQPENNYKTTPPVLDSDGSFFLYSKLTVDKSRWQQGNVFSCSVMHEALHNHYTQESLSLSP
light: B1 light
notes: also called Ho Ab T335_10E
B24: GpH7-B3 variant T335_11K/GpL16-k0 (antibody, human IgG1, kappa)
heavy: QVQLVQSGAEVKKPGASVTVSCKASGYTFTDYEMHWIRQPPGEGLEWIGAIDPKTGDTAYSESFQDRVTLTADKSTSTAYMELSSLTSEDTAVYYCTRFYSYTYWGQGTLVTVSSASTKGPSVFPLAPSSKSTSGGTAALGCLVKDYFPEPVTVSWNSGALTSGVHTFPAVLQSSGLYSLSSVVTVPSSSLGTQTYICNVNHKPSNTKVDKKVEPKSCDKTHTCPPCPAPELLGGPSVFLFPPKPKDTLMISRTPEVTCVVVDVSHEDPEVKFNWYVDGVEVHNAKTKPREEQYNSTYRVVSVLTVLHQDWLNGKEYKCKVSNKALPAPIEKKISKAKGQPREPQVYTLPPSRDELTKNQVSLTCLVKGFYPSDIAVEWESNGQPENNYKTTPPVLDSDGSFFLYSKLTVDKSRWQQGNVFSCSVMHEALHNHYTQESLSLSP
light: B1 light
notes: also called Ho Ab T335_11K
B25: GpH7-B3 variant T335_12R/GpL16-k0 (antibody, human IgG1, kappa)
heavy: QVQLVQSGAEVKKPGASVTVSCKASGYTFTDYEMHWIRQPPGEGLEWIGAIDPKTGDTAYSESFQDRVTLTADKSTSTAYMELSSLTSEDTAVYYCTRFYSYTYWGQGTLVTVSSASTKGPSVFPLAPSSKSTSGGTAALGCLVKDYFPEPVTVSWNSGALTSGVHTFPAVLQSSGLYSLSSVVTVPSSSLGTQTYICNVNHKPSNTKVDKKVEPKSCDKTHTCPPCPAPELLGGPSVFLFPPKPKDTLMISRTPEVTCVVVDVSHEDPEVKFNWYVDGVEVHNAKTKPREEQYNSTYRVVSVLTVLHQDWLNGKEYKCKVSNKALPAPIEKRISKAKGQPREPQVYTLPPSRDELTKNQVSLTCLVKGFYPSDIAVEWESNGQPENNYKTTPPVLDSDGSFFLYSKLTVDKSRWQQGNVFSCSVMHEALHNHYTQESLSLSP
light: B1 light
notes: also called Ho Ab T335_12R
B26: GpH7-B3 variant T335_15Y/GpL16-k0 (antibody, human IgG1, kappa)
heavy: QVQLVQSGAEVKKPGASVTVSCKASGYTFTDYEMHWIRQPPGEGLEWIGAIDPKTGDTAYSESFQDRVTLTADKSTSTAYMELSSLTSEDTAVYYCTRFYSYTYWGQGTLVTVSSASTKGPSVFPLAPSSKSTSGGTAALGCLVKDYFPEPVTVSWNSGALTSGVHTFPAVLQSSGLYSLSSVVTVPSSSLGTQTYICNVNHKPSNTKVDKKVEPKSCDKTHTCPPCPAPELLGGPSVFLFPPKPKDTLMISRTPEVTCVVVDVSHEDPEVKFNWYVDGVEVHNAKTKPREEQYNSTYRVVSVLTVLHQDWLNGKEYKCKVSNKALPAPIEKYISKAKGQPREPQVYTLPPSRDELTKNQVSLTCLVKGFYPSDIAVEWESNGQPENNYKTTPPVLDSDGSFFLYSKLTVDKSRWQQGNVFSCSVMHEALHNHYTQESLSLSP
light: B1 light
notes: also called Ho Ab T335_15Y
B27: GpH7-B3 variant V266_19Q/GpL16-k0 (antibody, human IgG1, kappa)
heavy: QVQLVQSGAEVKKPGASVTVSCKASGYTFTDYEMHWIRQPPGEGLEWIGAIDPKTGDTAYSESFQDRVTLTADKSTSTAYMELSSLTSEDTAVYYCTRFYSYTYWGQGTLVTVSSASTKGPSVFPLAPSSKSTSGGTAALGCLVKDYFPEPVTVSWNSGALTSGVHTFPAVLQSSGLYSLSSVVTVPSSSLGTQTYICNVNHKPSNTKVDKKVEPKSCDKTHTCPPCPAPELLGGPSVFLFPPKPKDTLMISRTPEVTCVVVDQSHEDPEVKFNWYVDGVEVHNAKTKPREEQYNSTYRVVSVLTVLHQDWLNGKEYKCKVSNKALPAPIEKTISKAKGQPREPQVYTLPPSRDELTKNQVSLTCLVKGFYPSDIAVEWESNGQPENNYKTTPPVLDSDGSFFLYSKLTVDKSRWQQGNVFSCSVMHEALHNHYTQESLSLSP
light: B1 light
notes: also called Ho Ab V266_19Q
B28: GpH7-B3 variant Y300_12R/GpL16-k0 (antibody, human IgG1, kappa)
heavy: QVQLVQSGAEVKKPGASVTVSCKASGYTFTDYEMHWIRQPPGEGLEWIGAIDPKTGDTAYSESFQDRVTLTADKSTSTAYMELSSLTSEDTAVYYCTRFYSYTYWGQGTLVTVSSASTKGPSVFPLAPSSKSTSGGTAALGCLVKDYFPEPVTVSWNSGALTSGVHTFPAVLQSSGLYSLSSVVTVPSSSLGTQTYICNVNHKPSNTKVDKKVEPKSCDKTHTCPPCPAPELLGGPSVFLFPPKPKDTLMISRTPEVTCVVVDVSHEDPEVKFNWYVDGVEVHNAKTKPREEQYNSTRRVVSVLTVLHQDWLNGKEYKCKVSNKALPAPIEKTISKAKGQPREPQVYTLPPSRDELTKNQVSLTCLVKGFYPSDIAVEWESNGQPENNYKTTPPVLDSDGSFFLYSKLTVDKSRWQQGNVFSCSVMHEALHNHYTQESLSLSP
light: B1 light
notes: also called Ho Ab Y300_12R

Target: T1, FcγRIa (human, UniProt P12314 16-292)
T1 construct: extracellular domain; Soluble extracellular domain expressed in FreeStyle293 cells, used as analyte in Biacore; also called FcgRI; 1a; not shown: His tag attached to the C terminus
Assay: SPR (Biacore); He Ab vs HeCon Ab GpH7-A5/GpH7-B3/GpL16-k0
Procedure: Analysis of interaction between objective antibody and the FcγR was carried out using Biacore T100 (GE Healthcare). HBS-EP+ (GE Healthcare) was used as the running buffer, and the measurement temperature was set to 25° C. Chips produced by immobilizing the antigen peptide by the amine coupling method to a Series S Sencor Chip CM5 (GE Healthcare), or alternatively, chips produced by allowing preliminarily biotinylated antigen peptides to interact with and immobilize onto a Series S Sensor Chip SA (certified) (GE Healthcare) were used. Antibodies of interest were captured onto an antigen peptide-immobilized chip, and allowed to interact to each FcγR diluted with running buffer. To regenerate and repeatedly use the chip, the antibodies captured on the chip were washed off by reacting 10 mM glycine-HCl, pH 1.5.

T1 sequence (P12314 16-292): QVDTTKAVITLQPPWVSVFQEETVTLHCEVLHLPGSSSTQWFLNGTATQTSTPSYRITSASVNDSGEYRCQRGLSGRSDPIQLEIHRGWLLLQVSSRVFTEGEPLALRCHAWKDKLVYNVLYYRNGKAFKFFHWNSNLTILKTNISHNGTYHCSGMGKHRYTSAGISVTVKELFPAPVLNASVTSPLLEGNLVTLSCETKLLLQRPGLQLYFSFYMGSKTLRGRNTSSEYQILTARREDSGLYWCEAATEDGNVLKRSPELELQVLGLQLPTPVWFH

He/Con_1a | Binder
100 relative binding, control = 100 | B1
104 relative binding, control = 100 | B2
107 relative binding, control = 100 | B3
110 relative binding, control = 100 | B4
109 relative binding, control = 100 | B5
114 relative binding, control = 100 | B6
107 relative binding, control = 100 | B7
107 relative binding, control = 100 | B8
108 relative binding, control = 100 | B9
109 relative binding, control = 100 | B10
107 relative binding, control = 100 | B11
107 relative binding, control = 100 | B12
109 relative binding, control = 100 | B13
108 relative binding, control = 100 | B14
109 relative binding, control = 100 | B15
104 relative binding, control = 100 | B16
103 relative binding, control = 100 | B17
104 relative binding, control = 100 | B18
103 relative binding, control = 100 | B19

Target: T1, FcγRIa
Assay: SPR (Biacore); Ho Ab vs HoCon Ab GpH7-B3/GpL16-k0
How it was run: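 Antibodies captured on antigen-peptide chips (CM5 amine-coupled or SA with biotinylated peptide), then each FcγR analyte, diluted in HBS-EP+, was injected at 25° C on Biacore T100. Surfaces regenerated with 10 mM glycine-HCl pH 1.5; binding expressed relative to the reference antibody.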

Ho/Con_1a | Binder
105 relative binding, control = 100 | B20
105 relative binding, control = 100 | B21
107 relative binding, control = 100 | B22
108 relative binding, control = 100 | B23
103 relative binding, control = 100 | B24
106 relative binding, control = 100 | B25
106 relative binding, control = 100 | B26
91.2 relative binding, control = 100 | B27
96.5 relative binding, control = 100 | B28
